From patent US20030027358A1 come the findings set out here.

The assay concerns the target MHC Class I heavy chains (HLA-A, B and C molecules) on CB23, HSB2, MP-1, Jurkat, primary T cells, primary B cells and primary NK cells. Description: flow cytometry competition; W6/32 at 0, 2, 5 or 10 µg in 100 µL, competitor 5 µg P3G2/Fc.

The substance “W6/32 (ATCC HB-95), an antibody against MHC Class I heavy chains” displayed an amount of W6/32 at which P3G2 binding was totally blocked of 5 µg.
